# Test: yeast display, Sf9 membrane polyspecificity reagent, FACS + sequencing; frameworks hold sequencing errors
# In short: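 Galactose-induced (36–48 hours) yeast carrying a synthetic nanobody display library were exposed to 10% biotinylated, detergent-solubilized Sf9 membrane reagent at 4 °C for 1 hour. FACS followed streptavidin microbead enrichment, using low and high (top ~1%) gates for expression (anti-HA) and reagent binding (streptavidin). Colony PCR, MiSeq 2 × 250 sequencing and CDR-length filtering followed. Labels for polyreactivity reflect the gate of origin.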
row,Sequence,polyreactivity (PSR sort gate)
1,QVQLVESGGGLVQAGGSLRLSCAPSGSTFLSYVMGWYRQAPGKERELVAAITGTGGRTYYADSVKGRFTISRDNAKNTVYLQMNCLKTEDTAVYYCTAYRNHGYDYWGQGTQVTVSS,high polyreactivity
2,QVQLVESGGGLVQAGGSLRLSCAASGRIFSKYGMGWYRQAPGKETEFVAAISGSGTNTYYADSVKGRFTISRDNAKNTVYLQMNSLKPEDTAVYYCAKRKSVRSTPSYEYWGQGTQVTVSS,high polyreactivity
3,QVQLVESGGGLVQAGGSLRLSCAHSGSSFYRYSMRWYIQAPGKERELDAAISTSGGRTYYADSVKGRFSISRDNAKNTVYLQMNSLKPEDTAVYYCAADQYRYYRSTYDYWGQGTQVTVSS,high polyreactivity
4,QVQLVESGGGLVQAGGSLRLSCAASGRTFQRYAMGWYRQAPGKERELVAAISRGGITYYADSVKGRFTISRDNAKNTVYLQMNSLKPEDTAVYYCAALYRYYHESSPFDYWGQGTQVTVSS,high polyreactivity
5,QVQHVESGGGLVQAGGSLRLSCAASGFTFWRYAMGWYRQEPGKERELVAGISSGGSTNYADSVKGRFTISRDNAKNTVYLQMNSLKPEDTAVYYCAADNSVGSYDYWGQGSQVTVSS,low polyreactivity
6,QVQLVESGGGLVQAGGSLRLSCAASGSTFYGYAMGWYRQAPGKERELVAAISSSATRTYYADSVKGRFTISRDNAKNTVYLQMNSLKPEDTAVYYCAAVSTLLYYHYYTRDYWGQGTQVTVSS,high polyreactivity
7,QVQLVESGGGLVQAGGSLRLSCAASGYIFPSYAMGWYRQAPGKERELVAAISESGGSTNYSDSVKGRFTISRDYAKNTVYLQLNSLKPEDTAVYYCAAGYYTVPPDMNSWGQGTQVTVSS,low polyreactivity
8,QVQLVESGGGLVQAGGSLRLSSAASGRIFPRYGMGWYRQAPGKERELVAAISIGGSTHYADSVKGRFTISRDNAKNTVYLQMNSLKPEDTAVYYCNKDIYVYWLFRLGMGYWGQGTQVTVSS,low polyreactivity
9,QVQLVESGGGLVQAGGSLRLSCAASGGIFTYYTMGWYRQAPGKERELVAAISRRVGRTYYADSVKGRFTISRDKANNTVYLQMNSLKPEDTAVYYCNADSRRRLFDYWGQGTQVTVSS,high polyreactivity
10,QVQLVESGGGLVQAGGSLRLSCAASGSISVYNAMGWYRQAPGKVRELVAAISWSGGRTSYADSVKGRFTISRDHAKNTVYLQMNSLKPEDTAVYYCAADELTGLWDEDYWGPGTQVTVSS,low polyreactivity
11,QVQLVESGGGLVPAGGSLRLSCAASGRISDLYAMGCYRQAPGKETEVVAGSTWRGGSTYYADSVKGRFTISRDNAKNTVYLQMNSLKPEDTAVYYCNAVWVQQVVGDGKRTWNFWYDYWGQGTQVTVSS,low polyreactivity
12,QVQLVESGGGLVQAGGSLRLSCASSGFTFTANDMGWYRKAPGKERELVAAISWSGDSTYYADSVKGRFTISRDNAKNTVYLQMNRLIPEDTAVYYCNVVFEFLSDGYYSYDYWVQGTQVTVSS,low polyreactivity
13,QVQLVESGGGLVQAGGSLRFSCAASGRTFRYYAMRWYRQAPGKERELVADISSTGRTYYADSVKGRFTISRDNAKNTVYLQMNSLNPEDSAVYYCAADYYSTYRTIYYYWGQGTQVSVSS,low polyreactivity
14,QVQLVESGGGLVQAGGSLRLSCAASGSIFDPYTMGWYRQAPGKERELVAAINWSGGSTYYADSVKGRCTISRDNAKNTVYLQINSLKPEDTAVSHCNADPHGYYGYGYDYWGQGTQVNVSS,low polyreactivity
15,QVQLVESVGGLVQAGGSLRLSCAASGSTFVDYAMGWYRQAPGKERELVAGINGSGGSTYYADSVKGRFTISRDNAKNTVYLQMNSLKPEDTAVYYCNARNPWRKRSQGYSWGQGTQVTVSS,low polyreactivity
16,QVQLVESGGGLVQAGGSLRLSCAASGSIFGTYAMGWYRQAPGKARELVAAITGSGGRTYYADSVKGRFTISRDNAKNTVYLQMNSLKPEDTAVYYCNKVVYVRSYPPRYDYWGQGTQVTVSS,high polyreactivity
17,QVQLVESGGGLVQAGGSLRLSCAASGRIFKIYSMGWYRQAPGKERELVAAISYRGTSTYYADSVKGRFTISRDNAKNTVYLQMNSLKPEDTAVYYCARRDTYTRYYWGQGTQVTVSS,high polyreactivity
18,QVQLVESGGGLVQAGGSLRLSCAASGSIFPWNTMGWYRQAPGKERELVARISTSGASTYYADSVKGRFTISRDNAKYTVYLQMNSLKQEDTAVYFCAKVRHYGGRSWWYYYWGQGTQVTVSS,high polyreactivity
19,QVQLVESGGGLVQAGGSLRLSCAASGRTFWYNAMGWYRQAPGKERELVAAISSTGGRTYYADSVKGRFTISRDNAKNTVYLQMNSLKPEDTAVYYCAKYPSKSYVPGDYWGQGTQVTVSS,low polyreactivity
20,QVQLEESGGGLVQAGGSLRLSCAASGSTLKLNAMGWYRQAPGKERELVASINFSGGSTYYAYSVKGRFTISRDNAKNTVYLQMNSLKPEDTAVYYCAAEASSYSRSVRWRYVYYYWGQGTQVTVSS,high polyreactivity

row,Sequence,polyreactivity (PSR sort gate)
1,QVQLVESGGGLVQAGGSLRLSCAASGSIYYNAMGWYRQAPGKERELVASISTGDSTDYADSVKGRFTISRDNAKNTVYLQMNSLKPEDTAVYYCAAVTRLGYWDDYWGQGTQVTVSS,low polyreactivity
2,QVQLVESGGGLVQAGGSLRLRCAASGRTFSSNAMGWSRQAPGKERQLVASITWSGRTYYADSVKGRFTNSRDNAKNTVYLQMNSRNPEDHAVYYCATVYRQESYFYTLYYWGQGTQVTVSS,high polyreactivity
3,QVQLVESGGALVQAGGSLRLSCAASGIIFGRNGMGWYRQAPGKERELVAAISRGGGSTYYADSVKGRFTISRDNAKNTVYLQMNSLKPEDTAVYYCARRPTGIYDYWGQVTQVTVSS,high polyreactivity
4,QVQLVESGGGLVQAGGSLRLSCAASGSIYGYYVMGWNRQAPGKERELVAAISRSGGSTYYADSVKGRFTISRDNAKNTFYLQMNSLKPEDTGVYYCAASFAVRYPRLDYWGQGTQVTVSS,high polyreactivity
5,QVQLVESGGGLVQAGGSLRLTCAASGITFFQYAMGWYRQAPGKERELVAAITWSGGDTYYADSVKGRFTISRDNAKITVYLQMNSLKPEDTAVYYCAAEYVVQYYVYGYTLGYDYWGQGTQVTVSS,high polyreactivity
6,QVQLVESGGGLVQAGGSLRLSCAASGLIFRKNAMGWYRQAPGKERELVAAISSSDSSTYADSVKGRFTISRDNAKNTVYLQMYSLKPEDTAVYYCAAASYNWLDWVTREYWGQGTQVTVSS,low polyreactivity
7,QDHLVESGGGLVQAGGSLRLSCAASGRIFDPYAMGWYRQAPGKERELVARITWRGGRTYYADSVKGRFTISLDNAKNTVYLQMNSLKPEDTAVYYCNAVFYYRYYGAYDYWGQGTQVTVSS,high polyreactivity
8,QVQLEESWGGLVQAGGSHRLICAASGSTIGYYAMGWYRQAPWKEREFVASITWGGASTDYADSVKGRFTISRDNAKNSVYLQMNSMKPEDTAVYYCAKDNWDNPRPTSEMDYWGQGTQVTVSS,low polyreactivity
9,QVQLVESGGGLVQAGGSLRLSCAASGYIYGVYAMGWYRQAPGKERELVAAISYGVGSTYYADSVKGRFTISRDNAKNTVYLQMNSLKPEDTAVYYCAAEDTQVRWSPVRPLEYYCGQGTQVTVSS,low polyreactivity
10,QVQLVESGGGLVQAGGSLRLSCAASGRTFKKYAMGWYRQAPGKEREMVAAITGSGGSTYYADSVKRRFTISRDNAKNTVYLQMNSLKPEDTAVYYCAAYAYGVWHSQDGGNYWGQGTQVTVSS,low polyreactivity
11,QVQLVESGGGLVQAGGTLRLSCAASGSTFYSYAMGWYRQAPGKERELVAAISGRGGTTYYADSVKGRFTISRDNAKNTVYLQMNSLKPEDTAVYYCAAEGWDWWTDDDYWGQGTQVTVSS,high polyreactivity
12,QVQLVESGGGLVQAGGSLRLICAASGRIFDFYAMGWYRQAPGKERELVAAITNGGRTNYADSVKGRFTISRDNAKNTVYLQMNSLKPEDTAVYYCAARLAYWYYYAWRGPYYYWGQGTQVTVSS,high polyreactivity
13,QVQLVESGGGLVQAGGSLRLSCAASGFIFYGNAMGWYRQAPGKVRELVAGISRSGGSTYYADSVKGRFTISRDNAKNTVSLQMNSLKPEDSAVYYCAASYWHRRYDYWGQGTQVTVSS,high polyreactivity
14,QVQLVESGGGLVQAGGSLRLSCAASGSNFVWYVMGWYRQAPGKDRELVAAITWSAARTYYADSVKGRFTISRDNAKNTVYLQMNSLKPEDTAVYYCAADGYPLQLYNYWGQGTQVTVSS,low polyreactivity
15,QVHLVESGGGLVQAGGSLRLSCAASGFIFDYYAMGWYRQAPGKERELVAAITGSGGGTYYADSVKGRFTISRDNAKNTVYLQMNSLKPEDSAVYYCNAYVPYPYSSEVQDYDYWGQCTQVTVSS,high polyreactivity
16,QVQLVESGGGLVQAGGSLRLSCAASGRTFYSNTMGWYRQAPGNERELVAAISRSGVGTYYADSVKGRFTISRDIAKNSVYLHMNSLKPEDTAVYYCAALPTGKSGYLYDYWGQGTQVTVSS,high polyreactivity
17,QVQLVESGGGIVQAGGSLRLSCAASGFTFTRYAMGSYRQAPGKERELVATITKRGGSTYYADSVKGRFTISRDNAKNTVYLKMNSLKPEDTAVYYCAADGASRALYDYWGQGTQVTVSS,high polyreactivity
18,QVQLVESGGGLVQAGGSLRLSCAASGRIFFVYAMGWYRQAPGKERELVASITGGGSTNYADSVKGRFTISRDNAKNTVYLQMNSLKPEDTAVYYCGADIHSTRVFPEYPSGYDYWGQGTQVTVSS,low polyreactivity
19,QVQLVESGGGLVQAGGSLRLSCAASVFIYVKYAMGWYRQAPGKERELVAAITWSTGSTYYADSVKGRFTISRDNAKNTVYLQMNSMKPEDTAVYYCNVDSAWGRRYYSSYPFYYWGQGTQVTVSS,low polyreactivity
20,QVQLVETGGGLVQAGGSLRLSCAPSGSTFYYYVMGWYRPPPGNERELVAAINSGGSTYYADSVKGRFTISRDNAKNTVYLQMNSLKPEDTAVYYCAKSWSYWYQYFYWGQGTQVTVSS,low polyreactivity

# Source: the nanobody polyreactivity screen of Harvey et al. (2022)
